Numbering of substitutions follows the chain as printed. In names and notes the source's numbering stands.
B1: LC-F092C (antibody, V domains shown)
VH: EVQLVQSGAEVKKPGATVKISCKVSGYSFTGHTMNWIRQPPGKGLEWIGLIKPSNGGTSYNQKFKGRVTISADKSISTAYLQWSSLKASDTAMYYCAHGHYESYFAMDYWGQGTLVTVSS
VL: DIQMTQSPSSLSASVGDRVTITCKASQDVSSAVAWYQQKPGQAPRLLIYWASTRHTGVPSRFSGSGSGTEFTLTISSLQPDDFATYYCQEHCSTPLTFGQGTKVEIK
B2: LC-A051I (antibody, V domains shown)
VH: B1 VH
VL: B1 VL with A51I, C92F
B3: LC-A032M (antibody, V domains shown)
VH: B1 VH
VL: B1 VL with A32M, C92F
B4: LC-H091F (antibody, V domains shown)
VH: B1 VH
VL: B1 VL with H91F, C92F
B5: LC-P095A (antibody, V domains shown)
VH: B1 VH
VL: B1 VL with C92F, P95A
B6: LC-F092N (antibody, V domains shown)
VH: B1 VH
VL: B1 VL with C92N
B7: LC-F092G (antibody, V domains shown)
VH: B1 VH
VL: B1 VL with C92G
B8: LC-A051N (antibody, V domains shown)
VH: B1 VH
VL: B1 VL with A51N, C92F
B9: LC-W050F (antibody, V domains shown)
VH: B1 VH
VL: B1 VL with W50F, C92F
B10: LC-F092D (antibody, V domains shown)
VH: B1 VH
VL: B1 VL with C92D
B11: LC-P095D (antibody, V domains shown)
VH: B1 VH
VL: B1 VL with C92F, P95D
B12: LC-P095C (antibody, V domains shown)
VH: B1 VH
VL: B1 VL with C92F, P95C
B13: LC-T094C (antibody, V domains shown)
VH: B1 VH
VL: B1 VL with C92F, T94C
B14: LC-F092E (antibody, V domains shown)
VH: B1 VH
VL: B1 VL with C92E
B15: LC-F092S (antibody, V domains shown)
VH: B1 VH
VL: B1 VL with C92S
B16: HC-E102R (antibody, V domains shown)
VH: B1 VH with E102R
VL: B1 VL with C92F
B17: LC-A034D (antibody, V domains shown)
VH: B1 VH
VL: B1 VL with A34D, C92F
B18: LC-A034Q (antibody, V domains shown)
VH: B1 VH
VL: B1 VL with A34Q, C92F
B19: LC-H091C (antibody, V domains shown)
VH: B1 VH
VL: B1 VL with H91C, C92F
B20: LC-A034N (antibody, V domains shown)
VH: B1 VH
VL: B1 VL with A34N, C92F
B21: LC-A051P (antibody, V domains shown)
VH: B1 VH
VL: B1 VL with A51P, C92F

The molecules below were run against Axl (UniProt P30530) (assay: ELISA, 1:3 dilution). Conditions: not given.

Molecule	Affinity ELISA CPE mutant ratio (1:3, pH 6.0/7.4)
B1	3.86
B2	2.24
B3	4.76
B4	1.6
B5	2.52
B6	1.93
B7	3.69
B8	1.41
B9	2.25
B10	2.97
B11	3.95
B12	2.35
B13	1.42
B14	1.76
B15	3.18
B16	3.7
B17	3
B18	2
B19	4
B20	2.63
B21	1.92

What follows are molecules tested against Axl (UniProt P30530) (assay: ELISA, 1:9 dilution). Conditions: not given.

Molecule	Affinity ELISA CPE mutant ratio (1:9, pH 6.0/7.4)
B1	4.58
B2	2.14
B3	2.92
B4	2.12
B5	2.99
B6	2
B7	4.76
B8	2.2
B9	3.5
B10	2.94
B11	2.89
B12	2.63
B13	1.77
B14	2
B15	2.94
B16	3.42
B17	2.6
B18	1.41
B19	3.02
B20	2.4
B21	1.57

These molecules were tested against T1, Axl (Homo sapiens, UniProt P30530) (assay: Affinity ELISA of CPE mutant antibodies for binding to Axl at pH 6.0 over pH 7.4). Conditions: heavy chain variable region mutants; 1:3 dilution.
T1 sequence (P30530 26-451 limits assumed): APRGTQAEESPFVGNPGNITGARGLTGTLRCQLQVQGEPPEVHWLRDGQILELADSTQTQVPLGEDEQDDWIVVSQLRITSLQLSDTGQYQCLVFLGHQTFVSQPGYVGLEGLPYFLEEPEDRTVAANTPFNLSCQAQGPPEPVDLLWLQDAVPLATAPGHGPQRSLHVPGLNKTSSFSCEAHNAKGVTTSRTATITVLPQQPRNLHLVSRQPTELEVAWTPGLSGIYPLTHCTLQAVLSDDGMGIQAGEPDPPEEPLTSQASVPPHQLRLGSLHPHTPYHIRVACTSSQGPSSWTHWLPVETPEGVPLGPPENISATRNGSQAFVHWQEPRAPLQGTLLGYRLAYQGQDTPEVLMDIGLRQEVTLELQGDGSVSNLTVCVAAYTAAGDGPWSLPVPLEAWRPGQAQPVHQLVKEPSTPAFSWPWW
Text: The DNA encoding the wild-type antibody was evolved to generate a mutant antibody library using Comprehensive Positional Evolution (CPE), which each position in the template antibody is randomized one at a time. Each mutant antibody in the library has only one single point mutation. The mutant antibodies in the library were generated by simultaneously screening for selective binding affinity to Axl at pH 6.0 over pH 7.4 by ELISA. Two mutant antibody dilutions were used: 1:3 and 1:9 dilutions. The mutant antibodies that have at least 1.5 ratio of binding affinity at pH 6.0 to at pH 7.4 under either 1:3 or 1:9 dilution are selected as conditionally active antibodies, with the single point mutations indicated in each of the heavy chain and light chain variable region (Tables 1 and 2).
A wild-type antibody to Axl was selected as the template antibody (with a heavy chain variable region of 063-hum10F10-HC in FIG. 1A and a light chain variable region of […]). The DNA encoding the wild-type antibody was evolved to generate a mutant antibody library using Comprehensive Positional Evolution (CPE), a method by which each position in the template antibody is randomized one at a time. Each mutant antibody in the library has only one single point mutation. The mutant antibodies in the library were generated by simultaneously screening for selective binding affinity to Axl at pH 6.0 over pH 7.4 as determined by ELISA.
Simultaneously, the expression level of the mutant antibodies was also optimized for the purpose of higher fields in a manufacturing process. The screening was done in serum using a FLAG tag because there were human antibodies in the serum which might cause false positives for the screening. The screening buffer was a carbonate buffer (Krebs buffer with ringer-standard buffer but different from PBS). […] Some of the selected mutant antibodies (scFv) were represented in FIG. 2 with their higher activity at pH 6.0 than at pH 7.4, while their activity ratios between pH 6.0 to pH 7.4 were at least 11 fold (FIG. 3).

Molecule	Affinity ELISA CPE mutant ratio (1:3, pH 6.0/7.4)
B16	3.701

Same assay, conditions: heavy chain variable region mutants; 1:9 dilution

Molecule	Affinity ELISA CPE mutant ratio (1:9, pH 6.0/7.4)
B16	3.416

Same assay, conditions: light chain variable region mutants; 1:3 dilution

Molecule	Affinity ELISA CPE mutant ratio (1:3, pH 6.0/7.4)
B1	3.862
B2	2.241
B3	4.757
B4	1.603
B5	2.523
B6	1.933
B7	3.692
B8	1.412
B9	2.245
B10	2.969
B11	3.949
B12	2.350
B13	1.423
B14	1.759
B15	3.179
B17	3.005
B18	1.999
B19	4.003
B20	2.626
B21	1.920

Same assay, conditions: light chain variable region mutants; 1:9 dilution

Molecule	Affinity ELISA CPE mutant ratio (1:9, pH 6.0/7.4)
B1	4.576
B2	2.139
B3	2.920
B4	2.116
B5	2.987
B6	2.004
B7	4.758
B8	2.200
B9	3.504
B10	2.940
B11	2.889
B12	2.630
B13	1.768
B14	1.999
B15	2.937
B17	2.599
B18	1.409
B19	3.025
B20	2.403
B21	1.569
